# Assay: label from the status in PepcDB records
row,Sequence,protein production
1,MRELFKSVRGFFRLLRMIFPKRLKNAFLGLSELFYYASSLSFYTILSLSPILLFVFSLFVSHYLQAHSGEMEALIFPNAPKLIGAIKDFLENFKKTDMTLGTLEEVSIVVALVLFCENYRSIASKIFQAKPRDYAHFKGKEIFLFWGFGTTLVFLFALPLVVFFDIKIQVFFEDKNSNLLHVLRWIGTYAFFLILFTIPTNKVFKHYFWVFLWVFFTSVSWHVLKWAFTYYVLYNRTYHELYGSVSILWFLMSWVYVSWLVILIGMYGCKVCDAFDPKEVFKKFLGFFKKET,failed
2,MRERAASARGVQLARSSRVFRKAEWWNDARRFRTVIASAAKQSDRHRGDSPGLLRCARNDACEAMAERHTATGSDRSTSSLASFELRVERNATFPGNVTRLLHLIVVLLLVAGRTAFAAPCQFESQGDGRVAAIVDARSVRLDDGREIRLTGIEPTATTKQALASLLVGRDVTLRSADDTPDRYGRQGGLIFIGDSDTPVQAMLLAQGDAIVSAEIADKDCAAALMSSEAEARRQKKGNWADPSAIKNAESPDDILAGIGRFVVVEGKVLSVRQAGAMTYLNFGRNWTRGFAVTISRRASPAFETAGIALKSLENRRIRVRGWVEGNTGPRIDVRLVGQVELLGANEPAGVRP,failed
3,MRERVLFFDLLRCVAAVAVIAIHVLAPYRNELGVIPMDQWLTAVGVNSVTRWAVPVFILITGALMLSDTRPFDGKYYVKRRLGKVLVPFLIWSTFYAYLSGWTAQGFDFETVKEVLSNSPFHATYYHLGFFYYFIPLYFVIPLFQWMARNVDDNVLYTYLAFWMFTSTLFLFKIDGPWSNQMWLYMGYLPLGYVLFQKVPLNRSMVTLFTGFGLVALAVTFTMVVTNSLEAEKYTVGRWLSYKTLNVILAASMIFMLCRYFGEGLPKNVQKVVSFISQHSLGIYLLHPIFLWPMKEFGWYTGHPGWVIPVWIVLSGAGALAMSYLFSKSAKTRWLLP,failed
4,MRETFADDLRSLHNKLIEMGRLTEVALQQAIEAFQTQNKNLAMAVIDGDGSIDKLEEEVNDFALWLIAKQQPVATDLRRIVAAIKIASDIERIADFAVNIAKACIRIGGQPFVMDIGPLVLMYRLATDMVSTAIAAYDREDASLAAQIADMDHRVDEQYGEMMKSLLEVEKTDKETLAQMNVLALVARYIERTADHATNIAEHLVYLVKGKHYDFND,not failed
5,MRETRPNPQEILKEINKNEKDSKRGKLKIFFGYAAGVGKTYAMLEAAHSAIAMGLDVVVGYIEPHTRPETLALLEGLELLPNLEVAYRGLVLREFNLDLALSRKPDLIIVDELAHTNVKGLRHEKRYSDIEELLDAGIDVYTTLNVQHIESLNDVVASITNIVVKERIPDRIFKNAFQIELIDVDPSVLIERLNSGKIYVKNQAKKALKNFFIRENLVALRELALRETANSVNKEVMINKNENFYHTNEHILVCLSSSPSNSKVIRTSARMAEAFHGKFTALFVETTSSRELKEGNIERLREHVKLAKDLGAKIETVYGDDVAYQVSEFSKISSVSKVIIGRTKKKRHLWSRFGIVDRLIELAPELDVYIIPDEEENVEDINKICLNKEKITIKDSLKTLGILIITIIISLFFENLGFSEANIIIVFILGVLIIAKETYGRIYGVISSLFSVLLFNFFFTEPKFTFNAYDSSYIFTFFIMLVSALITSTLTNKVKVQANKSAITAYRTNILLESSSELGRCSDLEEIILKSQEQVSRLVKKPVVVYKAKNSQIENIYNYKFKDGSELSDKYINLDEQGVVLWVINNRKYAGKGTETLPGAKAMYIPVLGQEDIGIVIGIILEEGEELEEGEKSLLIAMINQVSFVIDNYILEEAKKQALMQAENEKFKANLLRAVSHDLRTPLTSISGSASLLLNNNFDEETKRKLTLDIYDDSIWLINLVENLLSVSRIDNGNINLNREAQLVEEIILEALQHVNRNACDYNIEIDLKDELLMVNADVRLIIQVIINIVDNAIKYTEKGSNIKISAFSKGDNVIIEIADNGVGISKEDKEHIFDMFFTSKKNISDSRRGLGLGLALCKSIINVHEGEIYVRDNKPRGTIIGFSLQRFEVNNNETSNFSY,failed
6,MRETVKLIEVARELPVSRKNLQMLLLLLLCGAAAYIINLADPALEPLFLALVFGIVAGNLQRDEEKKRVVERYVPFLLPIGITLYGVNINIPYLGEFHPEIVAATLISTSLIFLTVFWLSSRLKLSRQMSILLACGSGICGVSAIAIISPLIKPRKEEFSAAIMIITAVGLTGAILYPSIAHYASISPDEFAVLAGATLHQTGIVKISSQLFGVEEEALAIKGIRIAMIALVVLILSIIYSESRFYVPWYIVSFLGVALFSSTYLPGEVVQALRPLATVMFATTLAAICYTVNVGRVQRVGVKPLFASYAGWAVGVAFVLLLLGSGAL,failed
7,MRFHLPGPEDTVRLGRALAKALLQIDGLRVVLLAGTLGSGKTTMTRGLVAELPGGGMAEVSSPSFNICNLYPTTPPTAHFDLYRLEGNEPDDALLDLIDEGESIILIEWAEHLPEYALPPVWLRLAWHAAGEGRIVEAHGNGAPALVALDMVAAGVPDLVQP,failed
8,MRFLFSLIGLVYSSLIKLAVPFNPKARMMVRGRWKVWRQLREGIVPGGRYIWFHAASLGEFEQGRPMIERIRSEYPDYRIVLTFFSPSGYEVRKNYEGADVIVYLPADRLPRVRKFLDLVKPEMAIFIKYDFWPCFLTELERRQIPTYLVSSIFRPSQLFFRWYGGAYKRLLHCFTHIFVQDKASRLLLEKHGIDHVSVAGDTRFDRVISVYEARKSLPLIERFAASVPEDGLVIVGGSSWPPDEEILVRYFNRNPKIKLILAPHEIDKEHLLQIISHIRRPFIRLSEATESDIARQDCLIVDSFGLLSSIYRYGQVAFIGGGFGKGIHNTPEAAVYGIPVIFGPRYEKFKEARELIDVGGGFSVSSAEEFGNLIKRIQTDKAYRDAASRAAADYIRSNAGATGYIVHRIMKLEHHHHHH,not failed
9,MRFPPLLFFQDSEAVKRIANSVRGTKDDDAEIKDHSMRFIRNAISGDQQKEILNVDMLRYIAWVLVALNENIVTARTVIRERDAVEDALKNQQPEDIENFADDLKINMKYNRDLERFEIGVFDFVKYASRVTGSQYRLSNQSVIKGIVYCQKDVAIKILRESFVSNMFKVIDSIDQTTASPVLSDQTDSINELREFYKKSVYAKLTIGRGNTKAFPPCMKEIIRNLHEGINVPHMGRLAIASFLHKVGYTEDEIVEYFRNAPDFDESITRYQIKHLSGEISGVEYSPPKCETMRSNHLCFMDDDKLCHQDWMKHPLTYYEVKSRRLGLEHHHHHH,failed
10,MRFRDRRHAGALLAEALAPLGLEAPVVLGLPRGGVVVADEVARRLGGELDVVLVRKVGAPGNPEFALGAVGEGGELVLMPYALRYADQSYLEREAARQRDVLRKRAERYRRVRPKAARKGRDVVLVDDGVATGASMEAALSVVFQEGPRRVVVAVPVASPEAVERLKARAEVVALSVPQDFAAVGAYYLDFGEVTDEDVEAILLEWAG,not failed
11,MRFRNAILFVALAIAWGSAFTAIKAGLEYFPPILFAAFRYDLAGLLMLGYAVYATDQWVPKSRTDWIVVGIGGSLLIAAYHIFLFVGEQGTTSAAAAIVVSLSPILTTGFARAFLPDERLTTLGIVGLLVGFLGVGVLSNPDPGNLLNPRTVSLFLVFLAAASFALGSVLTRRFDDDLEIETMEAWSMLLGAVLMHGISFGVSESVADVQWTTEAVLALLYLVVVASALGFLIYFDLLERLGPIEINLVSYAAPVVAAATGLLFLSETPTVYTGVGFTCILVGFGLLKRDALRNEVARFSGTPNRGE,failed
12,MRFSSIFKIIILNIFISKMAHAAVCEERYPADSEECQYVQELEQKAEQGDESAQFALGSWYAEGRYVKPDYKLAIKWLEKAGKQGSDFSYFILGYHYNYGENFPLSRQKALEWYRKAAELGDSSTQEILGDAYMYGDGFPQNTQLALEWYRKAASPTNDAGVVRGQGSASSAQFKLGVMYAHGQGVPQDYQQTAILMRKAAENMYYPAQLYLGVAYFYGEGVPQDYRQAVYWLNEGIPGSYTPGHIPLSALYDKAHPADRVHSQTWYRKTAQRVMAKVQYNFGVWYYNGYHLLKDHNLALEWYRRAAAQGLAEAQDAIGVMFMQGEGVSQDYQQALAWYRKAARQGLPAAQTHLGIMSAFGRDVAQSDRQAIAWYRKAAKQDFAKAQYQLGVAYSTGRGVPENSRNALKWYLKAAEQGFTPAQSALGEIYAHGRQGVPKDNKQAYIWYYMASMYTEKSKDDCSALIAERNRLKGTLTPDQLSETYAAFNLIWRKIDQSKEAKKIARKKY,failed
13,MRFVVAFFWTFLLTQMACYIVGAMNGAGYDLQTSVIMGFIITAAVIVLGEIMPVKQDASQH,failed
14,MRGEFLSRSADETREYARRFASGLKPGDTVCLTGPLGAGKTEFMRGITEAFGCEEQLSSPTFSLMNIYEGLLRGQPFELHHFDLYRLESEKELDSAGFDDYLSGPFLSVVEWGERFASLDRRYTRRVQLFIAGESQRKIVIT,failed

# Reference: a protein production outcome set (Wang et al. 2014)
